Assay results published in patent US20160040149A1, “Compositions Having Dicamba Decarboxylase Activity and Methods of Use” (priority 2013, published 2016).

B1: 566 (protein)
chain: MAQGKVALEEHFAIPETLQDAAGFVPGDYWKELQHRLLDIQDTRLKEMDRHEIGTMVLSLAAPAVQAIPDRRKAIEIARRANDFLAEEVAKRPDRFLAFAALPMQDVDAATEELQRCVNDLGFVGAMVNGFSQEGDGQTPLYYDLPQYRPFWGEVEKLDVPFYLHPRNPLPQDSRIYDGHPWLLGPTWAFAQETAVHALRLMASGLFDEHPRLNIILGHLGEGLPYMMYRIDHRIAWVKAPPDYPAKRRFMDYFLENFHITTSGNFRTQTLIDAILEIGADRILFSTDWPFENIDHAADWFNATSIAEADRVKIGRTNARRLFKLDGR
modifications: Dicamba decarboxylase variant
B2: 574 (protein)
chain: MAQGLVALEEHFAIPETLQDAAGFVPGDYWKELQHRLLDIQDTRLKEMDKHGIGTMILSLAAPAVQAIPDRRKAIEIARRANDFLAEEVAKRPDRFLAFAALPLQDVDAATEELQRCVADLGFVGAMVNGFSQEGDGQTPLYYDLPQYRPFWKEVEKLDVPFYLHPRNPLPQDSRIYDGHPWLLGPTWAFAQETAVHALRLMASGLFDEHPRLNIILGHLGEGLPYMMYRIDHRIAWVKAPPDYPAKRRFMDYFLENFHITTSGNFRTQTLIDAILEIGADRILFSTDWPFENIDHAADWFNATSIAEADRVKIGRTNARRLFKLDGS
modifications: Dicamba decarboxylase variant
B3: 568 (protein)
chain: MAQGLVALEEHFAIPETLQDAAGFVPGDYWKELQHRLLDIQDTRLKEMDKHEIGTMVLSLAAPAVQAIPDRRKAIELARRANDFLAEEVAKRPDRFLAFAALPMQDPEAATEELQRCVADLGFVGAMVNGFSQEGDGQTPLYYDLPQYRPFWGEVEKLDVPFYLHPRNPLPQDARIYDGHPWLLGPTWAFAQETAVHALRLMASGLFDEHPRLNIILGHLGEGLPYMMYRIDHRIAWVKAPPDYPAKRRFMDYFLENFHITTSGNFRTQTLIDAILEIGADRILFSTDWPFENIDHAADWFNATSIAEADRVKIGRTNARRLFKLDGR
modifications: Dicamba decarboxylase variant
B4: 576 (protein)
chain: MAQGLVALEEHFAIPETLQDAAGFVPGDYWKELQHRLLDIQDTRLKEMDKHGIGTMVLSLAAPAVQAIPDRRKAIEIARRANDFLAEEVAKRPDRFLAFAALPLQDVDAATEELQRCVADLGFVGAMVNGFSQEGDGQTPLYYDLPQYRPFWGEVEKLDVPFYLHPRNPLPQDARIYDGHPWLLGPTWAFAQETAVHALRLMASGLFDEHPRLNIILGHLGEGLPYMMYRIDHRIAWVEAPPDYPAKRRFMDYFLENFHITTSGNFRTQTLIDAILEIGADRILFSTDWPFENIDHAADWFAATSIAEADRVKIGRTNARRLFKLDGR
modifications: Dicamba decarboxylase variant
B5: 578 (protein)
chain: MAQGLVALEEHFAIPETLQDAAGFVPGDYWKELQHRLLDMQDERLKEMDRHGIGTMVLSLAAPAVQAIPDRRKAIEIARRANDFLAEEVAKRPDRFLAFAALPLQDVDAATEELQRCVNDLGFVGAMVNGFSQEGDGQTPLYYDLPQYRPFWGEVEKLDVPFYLHPRNPLPQDSRIYDGHPWLLGPTWAFAQETAVHALRLMASGLFDEHPRLNIILGHLGEGLPYMMYRIDHRIAWVKAPPDYPAKRRFMDYFLENFWITTSGNFRTQTLIDAILEIGADRILFSTDWPFENIDHAADWFAATSIAEADRVKIGRTNARNLFKLDGR
modifications: Dicamba decarboxylase variant
B6: 573 (protein)
chain: MAQGLVALEEHFAIPETLNDAAGFVPGDYWKELQHRLLDIQDTRLKEMDKHGIGTMVLSLAAPAVQAIPDRRKAIEIARRANDFLAEEVAKRPDRFLAFAALPMQDVDAATEELQRCVNDLGFVGAMVNGFSQEGDGQTPLYYDLPQYRPFWKEVEKLDVPFYLHPRNPLPQDSRIYDGHPWLLGPTWAFAQETAVHALRLMASGLFDEHPRLNIILGHLGEGLPYMMYRIDHRIAWVKAPPDYPAKRRFMDYFLENFHITTSGNFRTQTLIDAILEIGADRILFSTDWPFENIDHAADWFAATSIAEADRVKIGRTNARRLFKLDVR
modifications: Dicamba decarboxylase variant
B7: 572 (protein)
chain: MAQGKVALEEHFAIPETLQDAAGFVPGDYWKELQHRLLDIQDTRLKEMDKHEIGTMILSLAAPAVQAIPDRRKAIELAKRANDFLAEEVAKRPDRFLAFAALPLQDVDAATEELQRCVADLGFVGAMVNGFSQEGDGQTPLYYDLPQYRPFWGEVEKLDVPFYLHPRNPLPQDSRIYDGHPWLLGPTWAFAQETAVHALRLMASGLFDEHPRLNIILGHMGEGLPYMMYRIDHRIAWVKAPPDYPAKRRFMDYFLENFWITTSGNFRTQTLIDAILEIGADRILFSTDWPFENIDHAADWFNATSIAEADRVKIGRTNARRLFKLDGR
modifications: Dicamba decarboxylase variant
B8: 567 (protein)
chain: MAQGLVALEEHFAIPETLQDAAGFVPGDYWKELQHRLLDIQDTRLKEMDKHEIGTMVLSLAAPAVQAIPDRRKAIEIARRANDFLAEEVAKRPDRFLAFAALPMQDPEAATEELQRCVADLGFVGAMVNGFSQEGDGQTPLYYDLPQYRPFWGEVEKLDVPFYLHPRNPLPQDSRIYDGHPWLLGPTWAFAQETAVHALRLMASGLFDEHPRLNIILGHLGEGLPYMMYRIDHRIAWVKAPPDYPAKRRFMDYFLENFHITTSGNFRTQTLIDAILEIGADRILFSTDWPFENIDHAADWFAATSIAEADRVKIGRTNARRLFKLDVR
modifications: Dicamba decarboxylase variant
B9: 571 (protein)
chain: MAQGLVALEEHFAIPETLQDAAGFVPGDYWKELQHRLLDIQDTRLKEMDKHGIGTMILSLAAPAVQAIPDRRQAIELARRANDFLAEEVAKRPDRFLAFAALPLQDVDAATSELQRCVADLGFVGAMVNGFSQEGDGQTPLYYDLPQYRPFWGEVEKLDVPFYLHPRNPLPQDARIYDGHPWLLGPTWAFAQETAVHALRLMASGLFDEHPRLNIILGHLGEGLPYMMYRIDHRIAWVKAPPDYPAKRRFMDYFLENFHITTSGNFRTQTLIDAILEIGADRILFSTDWPFENIDHAADWFNATSIAEADRVKIGRTNARRLFKLDGR
modifications: Dicamba decarboxylase variant
B10: 580 (protein)
chain: MAQGLVALEEHFAIPETLNDAAGFVPGDYWKELQHRLLDIQDTRLKEMDKHEIGTMVLSLAAPAVQAIPDRRQAIELARRANDFLAEEVAKRPDRFLAFAALPLQDPDAATEELQRCVADLGFVGAMVNGFSQEGDGQTPLYYDLPQYRPFWGEVEKLDVPFYLHPRNPLPQDARIYDGHPWLLGPTWAFAQETAVHALRLMASGLFDEHPRLNIILGHMGEGLPYMMYRIDHRIAWVKAPPRYPAKRRFMDYFLENFHITTSGNFRTQTLIDAILEIGADRILFSTDWPFENIDHAADWFAATSIAEADRVKIGRTNARRLFKLDGR
modifications: Dicamba decarboxylase variant
B11: 575 (protein)
chain: MAQGLVALEEHFAIPETLQDAAGFVPGDYWKELQHRLLDIQDTRLKEMDKHGIGTMILSLAAPAVQAIPDRRKAIELARRANDFLAEEVAKRPDRFLAFAALPLQDVDAATSELQRCVADLGFVGAMVNGFSQEGDGQTPLYYDLPQYRPFWKEVEKLDVPFYLHPRNPLPQDARIYDGHPWLLGPTWAFAQETAVHALRLMASGLFDEHPRLNIILGHLGEGLPYMMYRIDHRIAWVHATPRYPAKRRFMDYFLENFHITTSGNFRTQTLIDAILEIGADRILFSTDWPFENIDHAADWFNATSIAEADRVKIGRTNARRLFKLDVR
modifications: Dicamba decarboxylase variant
B12: 569 (protein)
chain: MAQGLVALEEHFAIPETLQDAAGFVPGDYWKELQHRLLDIQDTRLKEMDKHEIGTMILSLAAPAVQAIPDRRKAIEIAKRANDFLAEEVAKRPDRFLAFAALPLQDVEAATSELQRCVNDLGFVGAMVNGFSQEGDGQTPLYYDLPQYRPFWGEVEKLDVPFYLHPRNPLPQDSRIYDGHPWLLGPTWAFAQETAVHALRLMASGLFDEHPRLNIILGHMGEGLPYMMYRIDHRIAWVKAPPRYPAKRRFMDYFLENFHITTSGNFRTQTLIDAILEIGADRILFSTDWPFENIDHAADWFAATSIAEADRVKIGRTNARRLFKLDVS
modifications: Dicamba decarboxylase variant
B13: 579 (protein)
chain: MAQGLVALEEHFAIPETLNDAAGFVPGDYWKELQHRLLDIQDTRLKEMDKHEIGTMVLSLAAPAVQAIPDRRQAIELAKRANDFLAEEVAKRPDRFLAFAALPLQDVEAATEELQRCVADLGFVGAMVNGFSQEGDGQTPLYYDLPQYRPFWKEVEKLDVPFYLHPRNPLPQDSRIYDGHPWLLGPTWAFAQETAVHALRLMASGLFDEHPRLNIILGHMGEGLPYMMYRIDHRIAWVKAPPDYPAKRRFMDYFLENFHITTSGNFRTQTLIDAILEIGADRILFSTDWPFENIDHAADWFNATSIAEADRVKIGRTNARRLFKLDGS
modifications: Dicamba decarboxylase variant
B14: 577 (protein)
chain: MAQGLVALEEHFAIPETLNDAAGFVPGDYWKELQHRLLDIQDERLKEMDKHGIGTMILSLAAPAVQAIPDRRKAIEIAKRANDFLAEEVAKRPDRFLAFAALPLQDVDAATEELQRCVADLGFVGAMVNGFSQEGDGQTPLYYDLPQYRPFWKEVEKLDVPFYLHPRNPLPQDSRIYDGHPWLLGPTWAFAQETAVHALRLMASGLFDEHPRLNIILGHMGEGLPYMMYRIDHRIAWVKAPPRYPAKRRFMDYFLENFWITTSGNFRTQTLIDAILEIGADRILFSTDWPFENIDHAADWFAATSIAEADRVKIGRTNARRLFKLDVS
modifications: Dicamba decarboxylase variant
B15: 570 (protein)
chain: MAQGLVALEEHFAIPETLQDAAGFVPGDYWKELQHRLLDMQDTRLKEMDKHGIGTMILSLAAPAVQAIPDRRKAIEIARRANDFLAEEVAKRPDRFLAFAALPLQDPEAATEELQRCVADLGFVGAMVNGFSQEGDGQTPLYYDLPQYRPFWGEVEKLDVPFYLHPRNPLPQDSRIYDGHPWLLGPTWAFAQETAVHALRLMASGLFDEHPRLNIILGHMGEGLPYMMYRIDHRIAWVKAPPDYPAKRRFMDYFLENFHITTSGNFRTQTLIDAILEIGADRILFSTDWPFENIDHAADWFNATSIAEADRVKIGRTNARRLFKLDVR
modifications: Dicamba decarboxylase variant

Test: DNA shuffling libraries: 14CO2 capturing assay in 384-well format, fold activity of backbone (Megatable 2)
Settings: relative to backbone SEQ ID NO: 509 (DDEC0810)
With B1 the “Fold Activity” value was 0.9 fold.
For B2, the “Fold Activity” value was 1.1 fold.
In the case of B3, the “Fold Activity” value is reported as 1.6 fold.
In the case of B4, the “Fold Activity” value is reported as 1.2 fold.
In the case of B5, the “Fold Activity” value is reported as 0.9 fold.
For B6, the “Fold Activity” value was 0.8 fold.
In the case of B7, the “Fold Activity” value is reported as 1.0 fold.
With B8 the “Fold Activity” value was 1.1 fold.
With B9 the “Fold Activity” value was 0.9 fold.
With B10 the “Fold Activity” value was 1.3 fold.
For B11, the “Fold Activity” value was 1.3 fold.
In the case of B12, the “Fold Activity” value is reported as 1.3 fold.
With B13 the “Fold Activity” value was 1.0 fold.
For B14, the “Fold Activity” value was 1.2 fold.
With B15 the “Fold Activity” value was 1.3 fold.
